{
  "source": "patent US9610329B2",
  "about": "(Albireo Pharma, Inc., priority 2009, dated 2017)",
  "key": {"[1]": {"settings": "cited from earlier work"}, "[2]": {"assay": "Accelerated stability study at 37° C., BIOD 901 compared to Lilly glucagon (Example 3)", "type": "physicochemical", "settings": "in solution at pH 4"}, "[3]": {"settings": "cited from earlier work", "remark": "listed apart in the source"}},
  "note": "Read-outs that look alike come from different tables or passages of the source.",
  "data": [
    {"substance": "glucagon", "values": [
      {"measurement": "onset of action post injection", "setting": "[1]", "value": "5 to 20", "unit": "min"},
      {"measurement": "time to gel", "setting": "[2]", "value": "≤ 2", "unit": "days"},
      {"measurement": "gel formation", "setting": "[3]; acidic aqueous conditions (pH 3-4)", "value": "forms a gel"},
      {"measurement": "precipitation", "setting": "[3]; neutral aqueous solution", "value": "precipitates within an hour of preparation"},
      {"measurement": "solubility in aqueous solutions", "setting": "[3]; pH less than 3 or greater than 9", "value": "soluble"},
      {"measurement": "solubility in aqueous solutions", "setting": "[3]; pH range of 4 to 8", "value": "low solubility"}
    ]}
  ]
}
